Experimental findings from paper PMC3665890 are described below.

The test addresses FITC-conjugated Mouse transferrin (UniProt Q921I1). As to the kind of experiment: flow cytometry on cells. As to conditions: read off a plot.
Chain of UniProt Q921I1 (Q921I1 whole entry, looked up): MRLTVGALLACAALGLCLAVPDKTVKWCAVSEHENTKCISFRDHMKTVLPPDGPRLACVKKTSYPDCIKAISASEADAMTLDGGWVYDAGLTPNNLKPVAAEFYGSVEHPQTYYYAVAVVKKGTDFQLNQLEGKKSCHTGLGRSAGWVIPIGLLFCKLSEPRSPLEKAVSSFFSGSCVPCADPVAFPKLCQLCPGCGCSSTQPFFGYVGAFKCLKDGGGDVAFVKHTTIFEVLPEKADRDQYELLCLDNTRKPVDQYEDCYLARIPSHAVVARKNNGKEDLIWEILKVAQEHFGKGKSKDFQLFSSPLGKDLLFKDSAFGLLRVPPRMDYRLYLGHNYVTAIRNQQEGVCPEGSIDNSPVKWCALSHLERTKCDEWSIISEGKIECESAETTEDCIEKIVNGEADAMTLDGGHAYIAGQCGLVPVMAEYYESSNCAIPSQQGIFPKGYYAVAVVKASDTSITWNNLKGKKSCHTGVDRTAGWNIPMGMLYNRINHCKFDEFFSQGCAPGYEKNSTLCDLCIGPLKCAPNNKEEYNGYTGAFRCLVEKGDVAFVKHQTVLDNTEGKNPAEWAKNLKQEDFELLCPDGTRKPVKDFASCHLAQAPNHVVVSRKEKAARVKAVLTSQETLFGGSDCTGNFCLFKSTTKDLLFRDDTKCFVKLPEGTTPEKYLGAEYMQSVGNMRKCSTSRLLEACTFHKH

In the case of “zygodont (Zygodontomys brevicauda) TfR1, wild type, C-terminal FLAG S296A; N569R; S575A”, for the setting “MDCK cells stably expressing TfR1-FLAG, incubated with media containing FITC-labeled iron-loaded mouse transferrin, three replicates, parent: est. 580”, the response came to 590 m.f.i.

Regarding “house mouse (Mus musculus) TfR1, wild type, C-terminal FLAG (from UniProt Q62351) A296S; R569I; A575L”, for the setting “parent: est. 1100”, the response is 910 m.f.i.
